Measured values as given in patent US20240059797A1 (GRITSTONE BIO, published 2024).
Substitutions are numbered along the chain they refer to.

B1: G2(1C06) scFv (scFv, V domains shown)
VH: QVQLVQSGAEVKKPGASVKVSCKASGYTFTDYQMFWVRQAPGQGLEWMGWINPNSGGTNYAQKFQGRVTMTRDTSTSTVYMELSSLRSEDTAVYYCAKGGGGYGMDVWGQGTTVTVSS
VL: DIQMTQSPSSLSASVGDRVTITCRASQGISNYLAWYQQKPGKAPKLLIYAASSLQSGVPSRFSGSGSGTDFTLTISSLQPEDFATYYCQQSYSDQWTFGQGTKVEIK
B2: G2(1E03) scFv (scFv, V domains shown)
VH: QVQLVQSGAEVKKPGASVKVSCKASGYTFTGYYMHWVRQAPGQGLEWMGWMNPNSGNTGYAQKFQGRVTMTRDTSTSTVYMELSSLRSEDTAVYYCATYDDGMDVWGQGTTVTVSS
VL: B1 VL with G28S, N31H, A34N, A50G, S93T, D94T, Q95P, K103R, V104L
B3: G2(2D04) scFv (scFv, V domains shown)
VH: QVQLVQSGAEVKKPGASVKVSCKASGYTFSNFLINWVRQAPGQGLEWMGWINPNSGGTNYAQKFQGRVTMTRDTSTSTVYMELSSLRSEDTAVYYCASERELPFDIWGQGTMVTVSS
VL: DIQMTQSPSSLSASVGDRVTITCRASQSISSWVAWYQQKPGKAPKLLIYGASNLESGVPSRFSGSGSGTDFTLTISSLQPEDFATYYCQQSYSTPYSFGQGTKLEIK
B4: G2(2A09) scFv (scFv, V domains shown)
VH: QVQLVQSGAEVKKPGASVKVSCKASGGTFSSYAISWVRQAPGQGLEWMGWINPNSGGTNYAQKFQGRVTMTRDTSTSTVYMELSSLRSEDTAVYYCAAMGIAVAGGMDVWGQGTLVTVSS
VL: B1 VL with G28S, N31R, Y32W, S93L, D94P, Q95P, W96Y, T97S
B5: G2(1B08) scFv (scFv, V domains shown)
VH: QVQLVQSGAEVKKPGASVKVSCKASGYTFTNYHMHWVRQAPGQGLEWMGWIHPDSGGTSYAQKFQGRVTMTRDTSTSTVYMELSSLRSEDTAVYYCARNWNLDYWGQGTLVTVSS
VL: B1 VL with G28S, Y32W, D70Y, D94S, Q95P, W96Y, V104L
B6: G2(1D06) scFv (scFv, V domains shown)
VH: QVQLVQSGAEVKKPGSSVKVSCKASGYTFTSQYMHWVRQAPGQGLEWMGRIIPLLGIVNYAQKFQGRVTITADESTSTAYMELSSLRSEDTAVYYCARDKNYYGMDVWGQGTTVTVSS
VL: EIVMTQSPATLSVSPGERATLSCRASQSVSRNLAWYQQKPGQAPRLLIYGASTRATGIPARFSGSGSGTEFTLTISSLQSEDFAVYYCQHYGYSPVTFGQGTKLEIK
B7: G2(2F01) scFv (scFv, V domains shown)
VH: QVQLVQSGAEVKKPGASVKVSCKASGYTFTSYYMHWVRQAPGQGLEWMGMINPRDDTTDYARDFQGRVTMTRDTSTSTVYMELSSLRSEDTAVYYCALSGNYYGMDVWGQGTTVTVSS
VL: DIQMTQSPSSLSASVGDRVTITCQASQDISNYLNWYQQKPGKAPKLLIYGASRLQSGVPSRFSGSGSGTDFTLTISSLQPEDFATYYCQEGITYTFGQGTKVEIK
B8: G8(1A03) scFv (scFv, V domains shown)
VH: QVQLVQSGAEVKKPGASVKVSCKASGGTFSRSAITWVRQAPGQGLEWMGWINPNSGATNYAQKFQGRVTMTRDTSTSTVYMELSSLRSEDTAVYYCARDDYGDYVAYFQHWGQGTLVTVSS
VL: DIQMTQSPSSLSASVGDRVTITCRASQSITSYLNWYQQKPGKAPKLLIYDASNLETGVPSRFSGSGSGTDFTLTISSLQPEDFATYYCQQNYNSVTFGQGTKLEIK
B9: G8(1D02) scFv (scFv, V domains shown)
VH: EVQLLESGGGLVQPGGSLRLSCAASGFTFSSYWMSWVRQAPGKGLEWVSSISGRGDNTYYADSVKGRFTISRDNSKNTLYLQMNSLRAEDTAVYYCARASGSGYYYYYGMDVWGQGTTVTVSS
VL: B1 VL with R24Q, G28D, A34N, D94A, Q95P, W96Y, Q100G
B10: G8(1B03) scFv (scFv, V domains shown)
VH: EVQLLESGGGLVQPGGSLRLSCAASGFTFSDYYMSWVRQAPGKGLEWVSGINWNGGSTGYADSVKGRFTISRDNSKNTLYLQMNSLRAEDTAVYYCARVEQGYDIYYYYYMDVWGKGTTVTVSS
VL: B1 VL with G28S, N31S, A34N, A50K, Q55E, D94A, Q95P, W96Y, Q100P, E105D
B11: G8(1C11) scFv (scFv, V domains shown)
VH: QVQLVQSGAEVKKPGASVKVSCKASGGTLSSYPINWVRQAPGQGLEWMGWISTYSGHADYAQKLQGRVTMTRDTSTSTVYMELSSLRSEDTAVYYCARSYDYGDYLNFDYWGQGTLVTVSS
VL: B1 VL with R24Q, G28D, A34N, D94I, Q95P, W96P, Q100G, E105D
B12: G8(1A04) scFv (scFv, V domains shown)
VH: QVQLVQSGAEVKKPGASVKVSCKASGYPFIGQYLHWVRQAPGQGLEWMGIINPSGDSATYAQKFQGRVTMTRDTSTSTVYMELSSLRSEDTAVYYCARDLSYYYGMDVWGQGTTVTVSS
VL: B1 VL with R24W, N31S, S93N, D94T, Q95P, Q100P, E105D
B13: G8(2E06) scFv (scFv, V domains shown)
VH: QVQLVQSGAEVKKPGASVKVSCKASGYTLTTYYMHWVRQAPGQGLEWMGWINPNSGGTNYAQKFQGRVTMTRDTSTSTVYMELSSLRSEDTAVYYCARAVYYDFWSGPFDYWGQGTLVTVSS
VL: B1 VL with Y32S, S91A, Y92N, D94F, Q95P, V104L
B14: G8(1A06) scFv (scFv, V domains shown)
VH: QVQLVQSGAEVKKPGASVKVSCKASGYTFTNYYMHWVRQAPGQGLEWMGWMNPIGGGTGYAQKFQGRVTMTRDTSTSTVYMELSSLRSEDTAVYYCARVYDFWSVLSGFDIWGQGTLVTVSS
VL: B1 VL with G28A, Y32S, S53T, Q89G, D94T, Q95P, W96P, V104L
B15: G8(2B05) scFv (scFv, V domains shown)
VH: EVQLLESGGGLVQPGGSLRLSCAASGFDFSIYSMNWVRQAPGKGLEWVSAISGSGGSTYYADSVKGRFTISRDNSKNTLYLQMNSLRAEDTAVYYCASNGNYYGSGSYYNYWGQGTLVTVSS
VL: B1 VL with G28S, N31R, Y32W, S91Y, Y92S, S93T, D94Y, Q95P, W96I, F98I
B16: G8(2C10) scFv (scFv, V domains shown)
VH: QVQLVQSGAEVKKPGASVKVSCKASGYTFTSYYMHWVRQAPGQGLEWMGWINPYSGGTNYAQKFQGRVTMTRDTSTSTVYMELSSLRSEDTAVYYCAKGGIYYGSGSYPSWGQGTLVTVSS
VL: B1 VL with G28D, I29V, N31T, Y32W, Y92H, D94T, Q95P, W96Q
B17: G8(1H08) scFv (scFv, V domains shown)
VH: QVQLVQSGAEVKKPGASVKVSCKASGYTFGNYFMHWVRQAPGQGLEWMGMVNPSGGSETFAQKFQGRVTMTRDTSTSTVYMELSSLRSEDTAVYYCAASTWIQPFDYWGQGTLVTVSS
VL: DIQMTQSPSSLSASVGDRVTITCRASQGINSYLAWYQQKPGKAPKLLIYDASNLETGVPSRFSGSGSGTDFTLTISSLQPEDFATYYCQQHNSYPPTFGQGTKLEIK
notes: also called G8-P1H08
B18: G2(1B06) Fab (Fab, V domains shown)
VH: QVQLVQSGAEVKKPGASVKVSCKASGGTFSNYILSWVRQAPGQGLEWMGWINPDSGGTNYAQKFQGRVTMTRDTSTSTVYMELSSLRSEDTAVYYCARGSYGMDVWGQGTTVTVSS
VL: B3 VL with S31R, V33L, G50A, N53S, E55Q, S97T
notes: Fab
B19: G2(1B12) Fab (Fab, V domains shown)
VH: QVQLVQSGAEVKKPGASVKVSCKASGYTFTSYGITWVRQAPGQGLEWMGWINPNSGGTNYAQKFQGRVTMTRDTSTSTVYMELSSLRSEDTAVYYCARDYGDLDYWGQGTLVTVSS
VL: B3 VL with S28N, S30G, S31N, V33L, G50A, N53T, E55Q, S56T, T94A
notes: Fab
B20: G2(1H01) Fab (Fab, V domains shown)
VH: B19 VH with S31R, G33T, T35N, Y100F, G101V, D102G, L103Y, Y105D
VL: B1 VL with G28S, I29V, S30G, Y32W, A50G, S56T, D94A, Q95P, W96Y
notes: Fab
B21: G2(2A03) Fab (Fab, V domains shown)
VH: QVQLVQSGAEVKKPGASVKVSCKASGYTFTSYTVNWVRQAPGQGLEWMGWINPNSGGTKYAQNFQGRVTMTRDTSTSTVYMELSSLRSEDTAVYYCARGGGGALDYWGQGTLVTVSS
VL: B3 VL with V33L, G50A, N53T, E55Q, S93L, T94P
notes: Fab
B22: G2(2A11) Fab (Fab, V domains shown)
VH: EVQLLESGAEVKKPGASVKVSCKASGYTFTTYDLAWVRQAPGQGLEWMGWINPNSGGTNYAQKFQGRVTMTRDTSTSTVYMELSSLRSEDTAVYYCARANWLDYWGQGTLVTVSS
VL: B3 VL with S28D, S31R, V33L, G50A, N53R, E55Q, S56A
notes: Fab
B23: G2(1H11) Fab (Fab, V domains shown)
VH: QVQLVQSGAEVKKPGASVKVSCKASGYTFTNYYMHWVRQAPGQGLEWMGMINPSGGGTSYAQKFQGRVTMTRDTSTSTVYMELSSLRSEDTAVYYCARGNPWELRLDYWGQGTLVTVSS
VL: B1 VL with R24Q, G28D, A34N, S91Y, D94Y, Q95P, W96F, Q100P, E105D
notes: Fab

target: T1, HLA-A*01:01_… (HLA-PEPTIDE target G2), recombinant biotinylated complex (human, enzymatically biotinylated (BirA)); experiment: phage panning, scFv ELISA;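 further: scFv binders from three to four bead panning rounds, tested as PPEs by ELISA on streptavidin plates carrying peptide-HLA complex (2 µg/ml), detected via anti-V5 and HRP anti-mouse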
T1 construct: also called G2-pHLA
Procedure: Phage library screening was carried out according to the overall screening design described above. Three to four rounds of bead-based panning were performed to identify scFv binders to each peptide-HLA complex. For each round of panning, an aliquot of starting phage was set aside for input titering and the remaining phage was depleted three times against Dynabead M-280 streptavidin beads (Life Technologies) followed by a depletion against Streptavidin beads pre-bound with 100 μmoles of pooled negative peptide-HLA complexes. For the first round of panning, 100 μmoles of peptide-HLA complex bound to streptavidin beads was incubated with depleted phage for 2 hours at room temperature with rotation. Three five-minute washes with 0.5% BSA in 1×PBST (PBS+0.05% Tween-20) followed by three five-minute washes with 0.5% BSA in 1×PBS were utilized to remove any unbound phage to the peptide-HLA complex bound beads. To elute the bound phage from the washed beads, 1 ml 0.1M TEA was added and incubated for 10 minutes at room temperature with rotation. The eluted phage was collected from the beads and neutralized with 0.5 ml 1M Tris-HCl pH 7.5. The neutralized phage was then used to infect log growth TG-1 cells (OD₆₀₀=0.5) and after an hour of infection at 37° C., cells were plated onto 2YT media with 100 μg/ml carbenicillin and 2% glucose (2YTCG) agar plates for output titer and bacterial growth for subsequent panning rounds.
96-well and/or 384-well streptavidin coated plates (Pierce) were coated with 2 μg/ml peptide-HLA complex in HLA buffer and incubated overnight at 4° C. Plates were washed three times between each step with PBST (PBS+0.05%). The antigen coated plates were blocked with 3% BSA in PBS (blocking buffer) for 1 hour at room temperature. After washing, scFv PPEs were added to the plates and incubated at room temperature for 1 hour. Following washing, mouse anti-v5 antibody (Invitrogen) in blocking buffer was added to detect scFv and incubated at room temperature for 1 hour. After washing, HRP-goat anti-mouse antibody (Jackson ImmunoResearch) was added and incubated at room temperature for 1 hour.

Binder	binding result
B1	binds
B2	binds
B3	binds
B4	binds
B5	binds
B6	binds
B7	binds

target: HLA-A*02:01_… (HLA-PEPTIDE target G8), recombinant complex (human, enzymatically biotinylated (BirA) for screening and functional assays); experiment: scFv PPE ELISA

Binder	fold selective binding to target pHLA over minipool of negative control pHLAs
B8	≥ 3 fold
B9	≥ 3 fold
B10	≥ 3 fold
B11	≥ 3 fold
B12	≥ 3 fold
B13	≥ 3 fold
B14	≥ 3 fold
B15	≥ 3 fold
B16	≥ 3 fold
B17	≥ 3 fold

target: T1, HLA-A*01:01_… (HLA-PEPTIDE target G2), …; experiment: BLI, pHLA on sensor, Fab titrated, 1:1 model

Binder	Kd	koff	kon
B18	44.4 nM	0.0323 s⁻¹	1.06e+06 M⁻¹ s⁻¹
B19	22.8 nM	0.00728 s⁻¹	366000 M⁻¹ s⁻¹
B20	15.5 nM	0.0148 s⁻¹	952000 M⁻¹ s⁻¹
B21	109 nM	0.036 s⁻¹	332000 M⁻¹ s⁻¹
B22	28.1 nM	0.0172 s⁻¹	633000 M⁻¹ s⁻¹
B23	49.9 nM	0.028 s⁻¹	581000 M⁻¹ s⁻¹
